Molecular target: PDGF-BB (platelet-derived growth factor BB) (Homo sapiens) (UniProt P01127)
Assay: filter
[1] = all P are NapdU, rest DNA, SB18T, 37 C
[2] = all Z are BndU, rest DNA, SB18T, 37 C

PDGF-BB (platelet-derived growth factor BB) (Homo sapiens), sequence (P01127 82-190): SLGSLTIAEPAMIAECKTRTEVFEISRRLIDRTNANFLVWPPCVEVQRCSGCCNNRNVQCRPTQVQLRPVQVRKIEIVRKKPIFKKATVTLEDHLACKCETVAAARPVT

CGACAGCATGTATGCACATCT [5169-4_175]
Kd (as 5169-4_146, PS 15, 3' inverted dT): 6.9 pM

CGACAGCATGTATGCACATCT [5169-4_176]
Kd (as 5169-4_146, PS 17, 3' inverted dT): 14 pM

CGACAGCATGTATGCACATCT [5169-4_177]
Kd (as 5169-4_146, PS 20, 3' inverted dT): 7.2 pM

CGACAGCATGTATGCACATCT [5169-4_178]
Kd (as 5169-4_146, PS 6, 3' inverted dT): 11 pM

CGACAGCATGTATGCACATCT [5169-4_179]
Kd (as 5169-4_146, PS 14, 3' inverted dT): 7.7 pM

CGACAGCATGTATGCACATCT [5169-4_180]
Kd (as 5169-4_146, PS 16, 3' inverted dT): 20 pM

CGACAGCATGTATGCACATCT [5169-4_181]
Kd (as 5169-4_146, PS 18, 3' inverted dT): 21 pM

CGACAGCATGTATGCACATCT [5169-4_182]
Kd (as 5169-4_146 plus PS 3' of 9,10,11,12, 3'-idT): 39 pM

CGACAGCATGTATGCACATCTA [5169-4_25]
Kd (NapdU at P): 20 pM

CGACAGCATGTATGCACATCTAG [5169-4_24]
Kd (NapdU at P): 21 pM

CGACAGCATGTATGCACATCTAGA [5169-4_23]
Kd (NapdU at P): 20 pM

CGACAGCATGTATGCACATCTAGAG [5169-4_22]
Kd (NapdU at P): 15 pM

CGACAGCATGTATGCACATCTAGAGG [5169-4_21]
Kd (NapdU at P): 21 pM

CGACAGCATGTATGCACATCTAGAGGC [5169-4_20]
Kd (NapdU at P): 14 pM

CGACAGCATGTATGCACATCTAGAGGCT [5169-4_19]
Kd [1]: 12 pM

CGACAGCATGTATGCACATCTAGAGGCTA [5169-4_18]
Kd (NapdU at P): 26 pM

CGACAGCATGTATGCACATCTAGAGGCTACCCAGT [5169-4_17]
Kd (NapdU at P): 20 pM

CGACAGCATGTATGCACATCTAGAGGCTACCCAGTG [5169-4_16]
Kd (NapdU at P): 16 pM

CGACAGCATGTATGCACATCTAGAGGCTACCCAGTGA [5169-4_15]
Kd (NapdU at P): 19 pM

CGACAGCATGTATGCACATCTAGAGGCTACCCAGTGAA [5169-4_12]
Kd (NapdU at P): 64 pM

CGACAGCATGTATGCACATCTAGAGGCTACCCAGTGAATGAGGA [5169-4_5]
Kd (NapdU at P): 31 pM

CGACAGCATGTATGCACATT [5169-4_78]
Kd (NapdU at P, C3 spacer at 20): 280 pM

CGACAGCATGTATGCACTCT [5169-4_76]
Kd (C3 spacer at 18, NapdU at 9,11,13,19,21, C3 spacer walk): 1300 pM

CGACAGCATGTATGCCATCT [5169-4_74]
Kd (NapdU at P, C3 spacer at 16): 370 pM

CGACAGCTGTATGCACATCT [5169-4_66]
Kd (C3 spacer at 8, NapdU at 9,11,13,19,21, C3 spacer walk): 8500 pM

CGACGCATGTATGCACATCT [5169-4_63]
Kd (NapdU at P, C3 spacer at 5): 29000 pM

CGACTACGTTACACGCGTTTATAGCGTCAACCCGAGTGAACA [4149-8_14]
Kd [2]: 13000 pM

CGTTACACGCGTTTATAGCGTCAACCCGAGTGAACA [4149-8_17]
Kd (Bn-dU): > 10000 pM

CTCTTACGACTACGTTACACGCGTTTATAGCGTC [4149-8_27]
Kd [2]: 90 pM

CTCTTACGACTACGTTACACGCGTTTATAGCGTCAACCCGAGTGAACA [4149-8_11]
Kd [2]: 30 pM

CTGCCTCGACAGCATGTATGCACATCTAGAGGCTA [5169-4_11]
Kd (NapdU at P): 600 pM

CTGCCTCGACAGCATGTATGCACATCTAGAGGCTACCC [5169-4_10]
Kd (NapdU at P): 630 pM

CTGCCTCGACAGCATGTATGCACATCTAGAGGCTACCCAGT [5169-4_9]
Kd [1]: 720 pM

CTGCCTCGACAGCATGTATGCACATCTAGAGGCTACCCAGTGAA [5169-4_8]
Kd (NapdU at P): 36 pM

CTGCCTCGACAGCATGTATGCACATCTAGAGGCTACCCAGTGAATGA [5169-4_7]
Kd (NapdU at P): 14 pM

CTGCCTCGACAGCATGTATGCACATCTAGAGGCTACCCAGTGAATGAGGA [5169-4_3]
Kd [1]: 29 pM

CTTACGACTACGTTACACGCGTTTA [4149-8_35]
Kd (Bn-dU): > 10000 pM

CTTACGACTACGTTACACGCGTTTAT [4149-8_34]
Kd (Bn-dU): > 10000 pM

CTTACGACTACGTTACACGCGTTTATAG [4149-8_32]
Kd [2]: 6000 pM

CTTACGACTACGTTACACGCGTTTATAGC [4149-8_31]
Kd [2]: 300 pM

CTTACGACTACGTTACACGCGTTTATAGCG [4149-8_30]
Kd [2]: 70 pM

CTTACGACTACGTTACACGCGTTTATAGCGT [4149-8_29]
Kd [2]: 70 pM

CTTACGACTACGTTACACGCGTTTATAGCGTCAACCCGA [4149-8_26]
Kd [2]: 80 pM

CTTACGACTACGTTACACGCGTTTATAGCGTCAACCCGAGTGAACA [4149-8_12]
Kd [2]: 40 pM

E10030 (Fovista)
Kd (comparator): 47 pM

GACAGCATGTATGCACATCT [5169-4_30]
Kd [1]: 62 pM

GACAGCATGTATGCACATCT [5169-4_59]
Kd (C3 spacer at 1, NapdU at 9,11,13,19,21, C3 spacer walk): 53 pM

GACAGCATGTATGCACATCTA [5169-4_29]
Kd (NapdU at P): 62 pM

GACAGCATGTATGCACATCTAG [5169-4_28]
Kd (NapdU at P): 48 pM

GACAGCATGTATGCACATCTAGA [5169-4_27]
Kd (NapdU at P): 62 pM

GACAGCATGTATGCACATCTAGAG [5169-4_32]
Kd (NapdU at P): 53 pM

GACAGCATGTATGCACATCTAGAGGCTACCCAGTGAA [5169-4_13]
Kd (NapdU at P): 27 pM

TACGACTACGTTACACGCGTTTATAGCG [4149-8_65]
Kd (Bn-dU, C3 at 2): > 10000 pM

TACGACTACGTTACACGCGTTTATAGCGTCAACCCGAGTGAACA [4149-8_13]
Kd [2]: 800 pM

TACGTTACACGCGTTTATAGCGTCAACCCGAGTGAACA [4149-8_16]
Kd [2]: 22000 pM

TTACACGCGTTTATAGCGTCAACCCGAGTGAACA [4149-8_18]
Kd [2]: 13000 pM

TTACGACTACGTACACGCGTTTATAGCG [4149-8_75]
Kd (Bn-dU, C3 at 12): > 10000 pM

TTACGACTACGTACACGCGTTTATAGCG [4149-8_76]
Kd (Bn-dU, C3 at 13): > 10000 pM

TTACGACTACGTTACACCGTTTATAGCG [4149-8_81]
Kd (Bn-dU, C3 at 18): > 10000 pM

TTACGACTACGTTACACGCGTTATAGCG [4149-8_84]
Kd (Bn-dU, C3 at 21): > 10000 pM

TTACGACTACGTTACACGCGTTATAGCG [4149-8_85]
Kd (Bn-dU, C3 at 22): > 10000 pM

TTACGACTACGTTACACGCGTTATAGCG [4149-8_86]
Kd (Bn-dU, C3 at 23): > 10000 pM

TTACGACTACGTTACACGCGTTTA [4149-8_43]
Kd (Bn-dU): > 10000 pM

TTACGACTACGTTACACGCGTTTAAGCG [4149-8_88]
Kd (Bn-dU, C3 at 25): > 10000 pM

TTACGACTACGTTACACGCGTTTAT [4149-8_42]
Kd (Bn-dU): > 10000 pM

TTACGACTACGTTACACGCGTTTATACG [4149-8_90]
Kd (Bn-dU, C3 at 27): > 10000 pM

TTACGACTACGTTACACGCGTTTATAG [4149-8_40]
Kd (BndU at 1,2,8,12,13,21,22,23,25, rest DNA, SB18T, 37 C): 1500 pM

TTACGACTACGTTACACGCGTTTATAGCG [4149-8_38]
Kd (BndU at 1,2,8,12,13,21,22,23,25, rest DNA, SB18T, 37 C, text p191 gives 20 pM, Table 1a 30 pM): 50 pM

TTACGACTACGTTACACGCGTTTATAGCG [4149-8_104]
Kd (Bn-dU, 2'-OMe U2): > 10000 pM

TTACGACTACGTTACACGCGTTTATAGCG [4149-8_107]
Kd (Bn-dU, 2'-OMe U13): > 10000 pM

TTACGACTACGTTACACGCGTTTATAGCG [4149-8_108]
Kd (Bn-dU, 2'-OMe U21): > 10000 pM

TTACGACTACGTTACACGCGTTTATAGCG [4149-8_109]
Kd (Bn-dU, 2'-OMe U22): > 10000 pM

TTACGACTACGTTACACGCGTTTATAGCG [4149-8_111]
Kd (Bn-dU, Nap-dU1, 2'-OMe U25): > 10000 pM

TTACGACTACGTTACACGCGTTTATAGCGT [4149-8_37]
Kd [2]: 40 pM

TTACGACTACGTTACACGCGTTTATGCG [4149-8_89]
Kd (Bn-dU, C3 at 26): > 10000 pM

TTACGACTACGTTACACGCTTTATAGCG [4149-8_83]
Kd (Bn-dU, C3 at 20): > 10000 pM

TTACGACTACGTTACACGGTTTATAGCG [4149-8_82]
Kd (Bn-dU, C3 at 19): > 10000 pM

TTACGACTACGTTCACGCGTTTATAGCG [4149-8_77]
Kd (Bn-dU, C3 at 14): > 10000 pM

TTACGACTACTTACACGCGTTTATAGCG [4149-8_74]
Kd (Bn-dU, C3 at 11): > 10000 pM

TTACGCCGTTACACGCGTTTATAGCG [4149-8_102]
Kd (Bn-dU, C3 linkers, 2'-OMe): > 10000 pM

TTACGTTACACGCGTTTATAGCG [4149-8_127]
Kd (Bn-dU, Nap-dU, Heg, 2'-OMe U as printed): > 10000 pM

TTACGTTACACGCGTTTATAGCG [4149-8_129]
Kd (Bn-dU, Nap-dU, Heg, 2'-OMe): > 10000 pM

TTACGTTACACGCGTTTATAGCG [4149-8_134]
Kd (Bn-dU): > 10000 pM

TTACGTTACACGCGTTTATAGCG [4149-8_178]
Kd (Bn-dU, Trp-dU8, Heg5, 2'-OMe A3, A11, A21, G24): > 10000 pM

TTACGTTACACGCGTTTATAGCG [4149-8_179]
Kd (Bn-dU, Trp-dU16, Heg5, 2'-OMe A3, A11, A21, G24): > 10000 pM

TTACGTTACACGCGTTTATAGCG [4149-8_180]
Kd (Bn-dU, Trp-dU17, Heg5, 2'-OMe A3, A11, A21, G24): > 10000 pM

TTACGTTACACGCGTTTATAGCG [4149-8_186]
Kd (Bn-dU, 2Nap-dU8, Heg5, 2'-OMe A3, A11, A21, G24): > 10000 pM
